Data on three compounds can be found in patent US20090124553A1, “Suppression of inflammation associated with transplantation using an epsilon PKC inhibitor” (priority 2007, published 2009).

For one data set, the target named is T1, εPKC (Rattus norvegicus, UniProt P09216).
T1 sequence (P09216 1-737): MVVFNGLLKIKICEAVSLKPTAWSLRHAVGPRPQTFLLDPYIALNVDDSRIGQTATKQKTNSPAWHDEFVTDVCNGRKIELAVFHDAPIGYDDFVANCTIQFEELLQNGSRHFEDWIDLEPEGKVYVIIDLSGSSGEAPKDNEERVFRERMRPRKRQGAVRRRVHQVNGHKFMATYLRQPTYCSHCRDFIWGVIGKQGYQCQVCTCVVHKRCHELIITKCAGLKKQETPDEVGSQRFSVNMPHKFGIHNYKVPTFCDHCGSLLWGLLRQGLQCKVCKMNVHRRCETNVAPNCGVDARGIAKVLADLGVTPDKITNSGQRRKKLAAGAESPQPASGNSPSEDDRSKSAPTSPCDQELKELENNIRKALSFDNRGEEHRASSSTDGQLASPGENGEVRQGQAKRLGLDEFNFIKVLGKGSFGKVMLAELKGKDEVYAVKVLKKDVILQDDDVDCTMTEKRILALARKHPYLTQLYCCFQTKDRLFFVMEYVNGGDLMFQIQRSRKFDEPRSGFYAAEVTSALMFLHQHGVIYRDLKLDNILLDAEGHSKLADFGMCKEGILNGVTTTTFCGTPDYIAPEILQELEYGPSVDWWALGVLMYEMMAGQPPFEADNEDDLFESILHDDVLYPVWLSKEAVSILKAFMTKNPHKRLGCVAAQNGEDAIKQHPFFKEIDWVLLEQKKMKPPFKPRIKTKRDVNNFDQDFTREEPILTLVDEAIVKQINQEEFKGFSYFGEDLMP
The note with it: from cited literature; cited from earlier work.

For a further data set, the system named is cardiac allografts. Description: Heterotopic cardiac allograft transplantation in mice: graft beating score, toxicity, body weight. The class given is in vivo. How it is done: In studies performed in support of the present methods, hearts of FVB mice (H-2^q) were transplanted into C57BL/6 mice (H-2^b) to provide an animal model for allograft transplantation. Following transplantation, an isozyme-specific εPKC inhibitor was administered to the transplant recipients. The particular inhibitor was TAT47-57-εV1-2 (i.e., εV1-2), which is described herein.
The εPKC-specific inhibitor, εV1-2, or the carrier/control peptide, TAT, was administered to the recipient animals using osmotic pumps to provide continuous treatment from day 3 following allograft transplantation until sacrifice on day 30. All animals were given 20 mg/kg/day of cyclosporine A (CyA) to ensure survival.
Male […] (H-2^q) and C57BL/6J (H-2^b) mice, 6-8 weeks old, were purchased from Jackson Laboratory (Bar Harbor, Me.) and housed at the animal facility at Stanford University Medical Center (Stanford, Calif.). The εVB mice were used as allograft donors and the C57BL/6J mice were used as recipients. […]
Allograft recipient mice were monitored daily. Graft viability was assessed by direct abdominal palpation of the heterotopically transplanted hearts and expressed as beating score, assessed by the Stanford cardiac surgery lab graft scoring system (Tanaka, M. et al. (2004) Circulation 110:II194-9).

As for HNAPIGYD, the “function on εPKC (agonist / antagonist)” value with εPKC is “functioned as a εPKC antatgonist/inhibitor”.

In the case of `CC(C)C[C@H](NC(=O)[C@H](CO)NC(=O)[C@@H](NC(=O)[C@H](C)NC(=O)[C@H](CCC(=O)O)NC(=O)[C@@H](N)CSSC[C@H](N)C(=O)N[C@@H](Cc1ccc(O)cc1)C(=O)NCC(=O)N[C@@H](CCCNC(=N)N)C(=O)N[C@@H](CCCCN)C(=O)N[C@@H](CCCCN)C(=O)N[C@@H](CCCNC(=N)N)C(=O)N[C@@H](CCCNC(=N)N)C(=O)N[C@@H](CCC(N)=O)C(=O)N[C@@H](CCCNC(=N)N)C(=O)N[C@@H](CCCNC(=N)N)C(=O)N[C@@H](CCCNC(=N)N)C(=O)O)C(C)C)C(=O)N[C@@H](CCCCN)C(=O)N1CCC[C@H]1C(=O)N[C@H](C(=O)O)[C@@H](C)O` [εV1-2], in the data set with cardiac allografts (allograft recipient mice treated day 3-30, compared to TAT-treated group), the toxic effects entry is “did not demonstrate toxic effects”. The same compound showed a body weight in the data set with cardiac allografts (allograft recipient mice, Mean±SEM) of 21.7 ± 0.9 g.

As to “ψεRACK: peptide HDAPIGYD (εPKC 85-92; SEQ ID NO: 9), εPKC-selective agonist”, in the data set with εPKC, the “function on εPKC (agonist / antagonist)” value was “functioned as a εPKC-selective agonist”.
